Measured values reported in paper PMC3493575, “Elongation Factor 1 alpha1 and Genes Associated with Usher Syndromes Are Downstream Targets of GBX2”.

Legend:
GBX2ΔHD = GBX2ΔHD (mouse, UniProt P48031 1-94); assay: EMSA; 940 pM probe, 720 nM GBX2; 2X binding buffer: 20 mM Tris-HCl pH 7.4, 50 mM KCl, 1 mM DTT, 10% glycerol, 200 ug/mL BSA, 2.2 ug/mL poly dI/dC; 30 min, 25 C; 6% native PAGE, Tris-glycine; conditions: protein: recombinant; tags: V5-6xHis (pET101/D-TOPO); label: 32P end label; blunt
GBX2 full-length = GBX2 full-length (mouse, UniProt P48031 1-348); assay: EMSA; supershift with anti-GBX2; 940 pM probe, 720 nM GBX2; 2X binding buffer: 20 mM Tris-HCl pH 7.4, 50 mM KCl, 1 mM DTT, 10% glycerol, 200 ug/mL BSA, 2.2 ug/mL poly dI/dC; 30 min, 25 C; 6% native PAGE, Tris-glycine; conditions: protein: recombinant; tags: V5-6xHis (pET101/D-TOPO); label: 32P end label; blunt
Chain of GBX2 full-length (P48031 whole entry): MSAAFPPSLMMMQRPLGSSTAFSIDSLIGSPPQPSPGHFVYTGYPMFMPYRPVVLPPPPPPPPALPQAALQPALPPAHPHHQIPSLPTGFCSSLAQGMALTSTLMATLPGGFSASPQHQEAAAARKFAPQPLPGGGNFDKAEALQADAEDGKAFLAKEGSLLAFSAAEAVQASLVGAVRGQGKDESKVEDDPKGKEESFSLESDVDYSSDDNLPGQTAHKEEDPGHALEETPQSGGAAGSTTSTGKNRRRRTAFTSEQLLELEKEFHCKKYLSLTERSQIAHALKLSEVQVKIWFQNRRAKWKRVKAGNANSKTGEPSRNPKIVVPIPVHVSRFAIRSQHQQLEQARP

Chain of GBX2ΔHD (P48031 1-94, stated change not applied): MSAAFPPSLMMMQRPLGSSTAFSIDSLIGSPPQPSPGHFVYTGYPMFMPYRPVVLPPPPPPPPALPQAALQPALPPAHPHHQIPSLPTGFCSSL

B1: PCDH15 100-mer probe (dsDNA)
DNA 1: TTACAATTTCATTTGTACAGGTAAGTATATACTTTTCTTTCATTGTTTCTTTTTAATATTCCCATTAGTGGGAATTCAGGCTATCTGTCTCTTACCTATC
DNA 2: GATAGGTAAGAGACAGATAGCCTGAATTCCCACTAATGGGAATATTAAAAAGAAACAATGAAAGAAAAGTATATACTTACCTGTACAAATGAAATTGTAA
B1: no binding (GBX2ΔHD); binds (GBX2 full-length).
